Measurements published in the supplement of paper PMC12764529.
± gives the half width of the 95% confidence interval.

Key:
[1] = folding stability dG unfold (combined trypsin and chymotrypsin); higher = more stable
How it was run: (§1)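 Unfolding free energy was derived, per protease or combined, by relating Bayesian-fitted K50 values from sequencing counts to a sequence-predicted unfolded-state K50 and a shared folded-state K50. The underlying digests exposed cysteine-free mini-proteins under 80 residues, in a PA-tagged cDNA display construct, to trypsin and chymotrypsin at 11 threefold-diluted concentrations and to a no-protease condition. A filter kept only designs with AlphaFold2 dimer inter-PAE above 15.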

[2] = folding stability dG unfold from trypsin proteolysis; higher = more stable
How it was run: as §1

[3] = folding stability dG unfold from chymotrypsin proteolysis; higher = more stable
How it was run: as §1

Row | Sequence | folding stability dG unfold [1] | folding stability dG unfold [2] | folding stability dG unfold [3]
1 | SAGGMMKIRIEVENPKGEKKEIELSEEELERIKEALKEGKVLTEEELKKLIELAKEKGYKVKIVEIESAGGS [r8_159_TrROS_Hall] | 2.09 ± 0.24 kcal/mol | 0.447 ± 0.077 kcal/mol | 2.37 ± 0.074 kcal/mol
2 | SAGGMMTLKITIVDEDGNEITIEVEMSIEELEELIKELFPGKKVKVVSVEEEPVEPGLVKVTIKIEKESAGG [r13_832_TrROS_Hall] | 4.96 ± 0.33 kcal/mol | 3.6 ± 0.12 kcal/mol | 5.01 ± 0.16 kcal/mol
3 | SAGGMNLMIKIENNGEPITFMINSPEDAEEIASNLPELGYPIEVKKLEPQRNEDGNPMVMVEIRIKPSAGGS [r8_336_TrROS] | 1.21 ± 0.23 kcal/mol | 0.763 ± 0.14 kcal/mol | 1.63 ± 0.15 kcal/mol
4 | SAGGMPEEELTLIVRIKVYNPETGEEKEITLTITVKSEEELEKAKKLVEELEEKLKELGIKKVEIEILSAGG [r13_360_TrROS_Hall] | 3.2 ± 0.26 kcal/mol | 2.92 ± 0.25 kcal/mol | 3.37 ± 0.097 kcal/mol
5 | SAGGMPGEVVDISDVPPGATLYDPEGKSYGPVVDVRVTVGPDSVEITITFPDGTTRTITAPRDKIYILPSAG [r5_850_JUSTAS] | 1.59 ± 0.14 kcal/mol | 1.83 ± 0.083 kcal/mol | 1.24 ± 0.065 kcal/mol
6 | SAGGMPGIRPVLRIRARVRFRGPEREEEIEIELHPEALEAGLTAEELARLRAEELGYEVEIEEIEIESAGGS [r16_554_TrMRF] | 1.84 ± 0.1 kcal/mol | 1.26 ± 0.097 kcal/mol | 2.01 ± 0.068 kcal/mol
7 | SAGGMPKDAPTTDLTITEIVTEPDPNSDTYIARVTTRLPDGTEIVYTLPIPADTTEEEVVERAKELLSSAGG [r13_578_JUSTAS] | 2.12 ± 0.077 kcal/mol | 1.78 ± 0.035 kcal/mol | 2.307 ± 0.018 kcal/mol
8 | SAGGMPKVPVTYTVTFTLKPDGSTLTVTETFPVPEPGKPVTKEEIKQRLLDKLPPSYTITSITITRASAGGS [r16_407_JUSTAS] | 2.13 ± 0.051 kcal/mol | 1.86 ± 0.03 kcal/mol | 2.21 ± 0.026 kcal/mol
9 | SAGGMPLEHIAEITEVRTFPDGRKEIRLLVEDPEVAEEGHPELREEMAELLRRLFEEEGLEVRVVPGESAGG [r13_243_TrMRF] | 0.2 ± 0.19 kcal/mol | 0.0715 ± 0.19 kcal/mol | 0.187 ± 0.18 kcal/mol
10 | SAGGMPLGITITETVTPTPDGSVVVTLTVSLPPDEPLTITFPISGETVSFPPDETITLKVTVPPGLSSAGGS [r16_56_JUSTAS] | 1.4 ± 0.093 kcal/mol | 1.7 ± 0.09 kcal/mol | 0.953 ± 0.034 kcal/mol
11 | SAGGMPLPDEKVNITITINYTLPGGKPKTITIPATNWTVEEANEKKKKVEEELKKVPPDPVEKDGKLLSAGG [r13_330_JUSTAS] | -0.354 ± 0.21 kcal/mol | -0.745 ± 0.19 kcal/mol | -0.281 ± 0.24 kcal/mol
12 | SAGGMPLPFRITQWDPNTGKPVATFPAVYDPETGLVVITPPDGSKEVFDAPLEEIVEALPSNWTVEPSAGGS [r16_543_TrMRF] | 0.083 ± 0.16 kcal/mol | 0.121 ± 0.096 kcal/mol | -0.0752 ± 0.48 kcal/mol
13 | SAGGMPLRFRIEVYKTETYYDPSTGKEVTKVEPLPELEIEAPPNTPLEAILAALDLPEDYYISRIGVESAGG [r13_716_TrMRF] | 2.43 ± 0.049 kcal/mol | 2.06 ± 0.065 kcal/mol | 2.55 ± 0.026 kcal/mol
14 | SAGGMPPENPAVVKVLAQKQKFEDLVKELKEKGIEAKLEKIEVVPETGKVTVTIKLPDGKEIVITIESAGGS [r8_277_JUSTAS] | 1.33 ± 0.21 kcal/mol | 1.62 ± 0.11 kcal/mol | 1.16 ± 0.064 kcal/mol
15 | SAGGMPPVVTEHTVELNPPASATLEDVRAAAEEVAAAIRAAAPEAGVAEVTFTVDPSRGTVTITVTRPSAGG [r13_1011_JUSTAS] | 0.442 ± 0.043 kcal/mol | 0.985 ± 0.018 kcal/mol | -0.925 ± 0.15 kcal/mol
16 | SAGGMPTYTITITSPETGELKELPPNISQTFDPNNVTYYTFTSEEEAKEAIKLIAPQNGWKVTITSSSAGGS [r8_131_JUSTAS] | 0.89 ± 0.35 kcal/mol | 1.37 ± 0.22 kcal/mol | -0.14 ± 0.52 kcal/mol
17 | SAGGMPVGVARVRTEAGDKVLEFTVEVPADVGAVEIRVKLKPDPLTGEPVVEEILEVRTYRAPPDVELSAGG [r13_568_TrMRF] | 0.887 ± 0.055 kcal/mol | 0.84 ± 0.047 kcal/mol | 0.837 ± 0.075 kcal/mol
18 | SAGGMPVLEREFTIPLPDGTPLRVTVRYFPGTGRALVTLRPVGTGEPLATVPLSELPPELRAALAEESAGGS [r8_32_TrMRF] | 2.9 ± 0.052 kcal/mol | 2.42 ± 0.063 kcal/mol | 3.102 ± 0.026 kcal/mol
19 | SAGGMPVPVKIEIIDDPGTLIITTPNGKPYTIPIPPNSIEEITIDPEKKVIKIKLKDGEIIIDVPDGSAGGS [r16_104_TrMRF] | 1.88 ± 0.11 kcal/mol | 1.62 ± 0.072 kcal/mol | 1.87 ± 0.038 kcal/mol
20 | SAGGMPVVIEIHVPKDKEEELARLIRRLLSELGAEVRVERFEDGIKVTAVLPDGTVIELHIVDDEKASAGGS [r16_406_TrMRF] | 4.24 ± 0.19 kcal/mol | 4.29 ± 0.21 kcal/mol | 4.03 ± 0.17 kcal/mol
21 | SAGGMQKAIDIAKELGWKILDVDPEKKVVKVKPPDSDVEVTITVDDESTVTITTKNPGSDVVETIPESAGGS [r16_197_JUSTAS] | 1.4 ± 0.16 kcal/mol | 1.38 ± 0.091 kcal/mol | 1.47 ± 0.056 kcal/mol

Row | Sequence | folding stability dG unfold [1] | folding stability dG unfold [2] | folding stability dG unfold [3]
22 | SAGGMRIEVEIEEVRELPDGRLVFRVRARIELKVRVLERDENGRWRELPEEEVTVELEVEVEVFLPPSAGGS [r16_693_TrROS_Hall] | 4.75 ± 0.3 kcal/mol | 3.97 ± 0.19 kcal/mol | 5.08 ± 0.21 kcal/mol
23 | SAGGMRVERSTSPSGEPVLLITLYLPDGTRVAEAPLRLDPARGGLTEEELEAVLKEIDLPEDVEVELRSAGG [r13_479_JUSTAS] | 0.482 ± 0.14 kcal/mol | 0.517 ± 0.11 kcal/mol | 0.468 ± 0.16 kcal/mol
24 | SAGGMSEALLADPTVEKVELFPSPGVTVYYRPETGTWLIQPPDGSVEEIKMTPEELEKLIADGLKPASAGGS [r16_745_JUSTAS] | 0.923 ± 0.1 kcal/mol | 0.839 ± 0.11 kcal/mol | 0.588 ± 0.23 kcal/mol
25 | SAGGMSIEELLKEAGYEVTVEEEEVDGKLRLKITIKANGKTLVIEVPESDAEEVLREIAKALGLEPESAGGS [r8_226_TrROS_Hall] | 3.53 ± 0.18 kcal/mol | 4.2 ± 0.42 kcal/mol | 3.01 ± 0.047 kcal/mol
26 | SAGGMSITLTPDDGSTLTIPLSDPTLSLEEVVQMVVDKQEGAVNIQVTITFPDSEVTKTYTIPSPGGSAGGS [r16_216_JUSTAS] | 0.605 ± 0.13 kcal/mol | 0.846 ± 0.041 kcal/mol | 0.275 ± 0.13 kcal/mol
27 | SAGGMSLSDPRDIRKAAKLKEIEILVKELNDKGIEVKLDEISFIEGTEEITAIVTFPDGTKYEITINSAGGS [r8_277_TrMRF] | 1.42 ± 0.075 kcal/mol | 1.85 ± 0.042 kcal/mol | 1.02 ± 0.018 kcal/mol
28 | SAGGMSPEELASLSPEERRAVVEEALRERLARERPGAPPDFALEDVPVTVRDPATGTTTTVTVRLEAASAGG [r13_555_JUSTAS] | 0.177 ± 0.16 kcal/mol | 0.384 ± 0.11 kcal/mol | 0.109 ± 0.14 kcal/mol
29 | SAGGMSPELAADPNVKRVLRFPEPGVFLAYYPEKGLLLLTPPDGKVLLIEAKPEEAEKLVESGLKPESAGGS [r16_745_TrMRF] | -0.0606 ± 0.13 kcal/mol | 0.028 ± 0.12 kcal/mol | -0.446 ± 0.19 kcal/mol
30 | SAGGMSPVKVAEKTYVIPLPSSMTKEEAKEEVKKELVPKGIDKIDIPISEDPNKGTLIIKVTVYKYPNESAG [r5_924_JUSTAS] | 0.49 ± 0.35 kcal/mol | 0.297 ± 0.2 kcal/mol | 0.757 ± 0.27 kcal/mol
31 | SAGGMSSSSYTYTTPLSSLKAAHPDLSEEELLALAKEAAKAALEAEGVPVSSVTATLAPDGTLTIVDSAGGS [r8_368_JUSTAS] | 0.834 ± 0.14 kcal/mol | 0.862 ± 0.065 kcal/mol | 0.634 ± 0.12 kcal/mol
32 | SAGGMSTTKTVTSGGSTVTITTEPLPDGTTLSTVTVKSGGSPVTTITIPTSQLGEVAAAGGFAPADLLSAGG [r13_108_JUSTAS] | 0.15 ± 0.065 kcal/mol | 0.0387 ± 0.054 kcal/mol | 0.172 ± 0.055 kcal/mol
33 | SAGGMSTTYTLKYPGTTVTVTFNPGSVTVDDTDPANPVTKPLPVPPGKPLTLAEVKAALAAAGYAVAESAGG [r13_687_JUSTAS] | 0.0161 ± 0.21 kcal/mol | -0.204 ± 0.15 kcal/mol | 0.0182 ± 0.33 kcal/mol
34 | SAGGMSVKIEEKTHPETNEITINVEYDDIEKAKKEIAEKIKKENGNIPVTLVDKNGKPITIPLKELISAGGS [r8_236_JUSTAS] | 0.317 ± 0.099 kcal/mol | 0.0225 ± 0.087 kcal/mol | 0.368 ± 0.03 kcal/mol
35 | SAGGMSVRFRFTDEDDRIHVDEIIPGEGIMRVVVEGEDRPLVFTIDAPPDAAIQLIRDLFDGPFEVEASAGG [r13_141_TrMRF] | 0.596 ± 0.095 kcal/mol | -0.187 ± 0.26 kcal/mol | 0.849 ± 0.11 kcal/mol
36 | SAGGMSVTFEKEDKTYVITFEPSPEGGYLVTLEVLDPKTGEAKPVATAEFTEGSLEDAVVALLAAEESAGGS [r16_378_TrMRF] | 3.7 ± 0.12 kcal/mol | 4.08 ± 0.3 kcal/mol | 3.67 ± 0.08 kcal/mol
37 | SAGGMSVVIPVRPEDREEVRELLEALPSEDVKVVIYNPVTGEKREVTPEEARALLEATDEPLVIEVRSAGGS [r16_263_TrMRF] | 1.84 ± 0.041 kcal/mol | 1.68 ± 0.046 kcal/mol | 1.89 ± 0.023 kcal/mol
38 | SAGGMTEEEAKELAKELAEKYAEEKGIEEIELKIESVEKEGDKFTVKVKLTFPNEEKTITITIPKDLISAGG [r13_611_JUSTAS] | 3.24 ± 0.11 kcal/mol | 3.34 ± 0.21 kcal/mol | 3.21 ± 0.19 kcal/mol
39 | SAGGMTEVSEVERSVIPDEGIPVTLERVETTVTVPPTTYKDEKGEVLPPGAVVHTESTVTIEERPELSAGGS [r8_262_JUSTAS] | 0.257 ± 0.14 kcal/mol | 0.22 ± 0.036 kcal/mol | 0.095 ± 0.1 kcal/mol
40 | SAGGMTFETETITLEFPPEDEEEIRKRAEEIAEKLKKEYEKKGYKVEVEFSYDPETGVLTITIKFEKKSAGG [r13_755_JUSTAS] | 3.99 ± 0.11 kcal/mol | 3.57 ± 0.19 kcal/mol | 4.19 ± 0.067 kcal/mol
41 | SAGGMTFTITVTIPAKEKFYDPSKGIWRERELNRVITIPFSSSDIEKAKEEVRSKLPPDKYKITSVDSAGGS [r16_459_JUSTAS] | 1.19 ± 0.12 kcal/mol | 1.29 ± 0.04 kcal/mol | 1.21 ± 0.17 kcal/mol
42 | SAGGMTIRVEVFRDGELVETLEFEGSVEELLAKLPPEVTYVRIEVEKDGKTETVEFKTAEELKAALKSSAGG [r13_299_TrROS_Hall] | 2.91 ± 0.17 kcal/mol | 2.13 ± 0.076 kcal/mol | 3.33 ± 0.067 kcal/mol
